{
  "source": "paper PMC2832577",
  "about": "(Science (New York, N.Y.), 2008)",
  "key": {"LeuT [1]": {"biological_target": "T1, LeuT (Aquifex aeolicus, UniProt O67854)", "assay": "displacement of [3H]leucine binding"}, "LeuT [2]": {"biological_target": "T1, LeuT", "assay": "direct radioligand binding"}, "NCC(=O)O": {"tested_on": "NCC(=O)O", "assay": "purified protein", "settings": "transport"}, "CSCC[C@H](N)C(=O)O": {"tested_on": "CSCC[C@H](N)C(=O)O", "assay": "purified protein", "settings": "transport"}, "CC(C)C[C@H](N)C(=O)O": {"tested_on": "CC(C)C[C@H](N)C(=O)O", "assay": "purified protein", "settings": "transport"}, "[3]": {"tested_on": "N[C@@H](Cc1ccc(O)cc1)C(=O)O", "assay": "purified protein", "settings": "transport"}, "LeuT [4]": {"biological_target": "T1, LeuT", "assay": "X-ray crystal structure, anomalous difference Fourier", "type": "binding", "settings": "primary substrate site"}},
  "data": [
    {"compound": "NCC(=O)O", "note": "[Glycine]", "values": [
      {"measurement": "Ki", "setting": "LeuT [1]", "result": 322, "unit": "µM"}
    ]},
    {"compound": "N[C@@H](Cc1ccc(O)cc1)C(=O)O", "note": "[Tyrosine]", "values": [
      {"measurement": "Ki", "setting": "LeuT [1]", "result": "9.04 ± 0.55", "unit": "µM"}
    ]},
    {"compound": "CSCC[C@H](N)C(=O)O", "note": "[Methionine]", "values": [
      {"measurement": "Kd", "setting": "LeuT [2]", "result": "69 ± 8", "unit": "nM"},
      {"measurement": "Ki", "setting": "LeuT [1]", "result": "0.232 ± 0.021", "unit": "µM"}
    ]},
    {"compound": "LeuT (Aquifex aeolicus VF5)", "values": [
      {"measurement": "Km", "setting": "NCC(=O)O", "result": "1910 ± 30", "unit": "nM"},
      {"measurement": "Vmax", "setting": "NCC(=O)O", "result": 0.000444, "unit": "µmol/min/mg"},
      {"measurement": "kcat", "setting": "NCC(=O)O", "result": "0.000439 ± 5.56e-05", "unit": "s⁻¹"},
      {"measurement": "kcat/Km", "setting": "NCC(=O)O", "result": 222, "unit": "M⁻¹ s⁻¹"},
      {"measurement": "Km", "setting": "CSCC[C@H](N)C(=O)O", "result": "289 ± 27", "unit": "nM"},
      {"measurement": "Vmax", "setting": "CSCC[C@H](N)C(=O)O", "result": 0.000523, "unit": "µmol/min/mg"},
      {"measurement": "kcat", "setting": "CSCC[C@H](N)C(=O)O", "result": "0.000517 ± 1.11e-05", "unit": "s⁻¹"},
      {"measurement": "kcat/Km", "setting": "CSCC[C@H](N)C(=O)O", "result": 1780, "unit": "M⁻¹ s⁻¹"},
      {"measurement": "Km", "setting": "CC(C)C[C@H](N)C(=O)O", "result": "146 ± 25", "unit": "nM"},
      {"measurement": "Vmax", "setting": "CC(C)C[C@H](N)C(=O)O", "result": 0.000343, "unit": "µmol/min/mg"},
      {"measurement": "kcat", "setting": "CC(C)C[C@H](N)C(=O)O", "result": "0.000333 ± 5.56e-05", "unit": "s⁻¹"},
      {"measurement": "kcat/Km", "setting": "CC(C)C[C@H](N)C(=O)O", "result": 2280, "unit": "M⁻¹ s⁻¹"},
      {"measurement": "Km", "setting": "[3]", "result": "2830 ± 150", "unit": "nM"},
      {"measurement": "Vmax", "setting": "[3]", "result": 0.000209, "unit": "µmol/min/mg"},
      {"measurement": "kcat", "setting": "[3]", "result": "0.000206 ± 1.39e-05", "unit": "s⁻¹"},
      {"measurement": "kcat/Km", "setting": "[3]", "result": 83.3, "unit": "M⁻¹ s⁻¹"}
    ]},
    {"compound": "C[Se]CC[C@H](N)C(=O)O", "note": "[selenomethionine]", "values": [
      {"measurement": "X-ray crystal structure, anomalous difference Fourier", "setting": "LeuT [4]", "result": "We also measured diffraction data on a LeuT-selenomethionine complex"}
    ]}
  ]
}
